Experiments:
[1] = system: cellular SSRP in human (HeLa) and hamster (V79) cell extracts; settings: cited from earlier work
[2] = system: HMG1; experiment: inhibition; settings: cisplatin 1,2-d(GpG) intrastrand crosslink; inhibition of excision repair by HeLa CFE at 1 uM HMG1 (20% at 0.5 uM); 8 mM MgCl2, 2 mM ATP, 30 C
[3] = system: h-mtTFA (mitochondrial transcription factor A) (Homo sapiens); experiment: inhibition
[4] = system: yeast ixr-1 null mutant strain; settings: Brown et al. (1993); cited from earlier work
[5] = system: cisplatin 1,2-d(G^G) intrastrand adduct (1,2-GG), excision by human excinuclease; experiment: Exinuclease excision repair of the 1,2-intrastrand cisplatin lesion by HeLa cell-free extract, with or without HMG-box protein; assay type: biochemical; settings: for percent inhibition of repair, 1,2-GG adduct: 30 min, 30° C, average of two experiments
Method: (§1) Exinuclease substrates with defined cisplatin lesions Nucleic acid fragments (oligomers) bearing a 1,2-d(G^G) or a 1,3-d(GTG) cisplatin crosslink at a defined site were prepared essentially according to the method of Shi et al. (1987), 15 Nucleic Acids Res. 6843, by ligation of a mixture of a cisplatin-lesioned dodecamer with seven other oligonucleotides to produce 156 bp fragments. Prior to ligation, lesioned dodecamers were labeled with [γ-^32P]ATP such that the detectable radiolabel would be located at the 4th phosphodiester bond 5′ to the 1,3-intrastrand d(GTG) lesion, or the 5th phosphodiester bond 5′ to the 1,2-intrastrand d(G^G) lesion. Thus, the radiolabel would be included in the 27-29 nucleotide fragment spanning the cisplatin lesion that would be released by exinuclease. Full length (156 bp) exinuclease substrate oligomers were isolated on a 5% polyacrylamide/8 M urea denaturing gel and reannealed.
(§2) Exinuclease reaction. The excision reaction buffer contained 40 mM Hepes, pH 7.9, 80 mM KCl, 8 mM MgCl2, 2 mM ATP, 20 μM of each dNTP, 1 mM dithiothreitol, 0.3 mM EDTA, 6.8% (v/v) glycerol, and 200 μg/ml bovine serum albumin. The reaction mixture (50 μl) contained 100 μg of CFE (in cases of complementation, 50 μg of each of the XP CFE) and 30 pM DNA substrate (specific activity 7000 Ci/mmol), plus 250 ng pBR322 as carrier DNA. The excision reaction was carried out varying lengths of time at 30° C. Following proteinase K digestion, DNA exinuclease reaction products were extracted by phenol/chloroform and precipitated with ethanol. Equal amounts of DNA were loaded onto each lane.
(§3) The radiolabeled substrates bearing specific 1,2- and 1,3-intrastrand cisplatin lesions and the HeLa cell-free extract described above in Example 1 were used.
(§4) Gel Mobility Shift Assay. The 25 μl reaction mixtures contained 30 pM substrate and 0, 1, 2, 4 or 8 μM HMG1. Mixtures were incubated at 30° C. for 10 min. Samples (1.5 μl) of the mixtures were withdrawn and adjusted to 15% (v/v) glycerol, and electrophoretically resolved on a 5% native polyacrylamide gel. Results were visualized by autoradiography.
(§5) Exinuclease reaction in the presence of HMG1. Following withdrawal of the above samples for gel mobility shift analysis, 50 μg of HeLa CFE was added to each of the reaction mixtures and incubation was continued for 30 min at 30° C. as described in Example 1. Reactions were stopped and DNA reaction products were retrieved and analyzed as described in Example 2.
(§6) An exinuclease inhibition study was carried out generally as described in Example 3, using 0, 0.5 or 1.0 μM concentrations of HMG1 or h-mtTFA in parallel incubations.

[6] = system: cisplatin 1,3-d(GTG) intrastrand adduct (1,3-GTG), excision by human excinuclease; experiment: Exinuclease excision repair of the 1,3-intrastrand cisplatin lesion by HeLa cell-free extract, with or without HMG-box protein; assay type: biochemical; settings: for percent inhibition of repair, 1,3-GTG adduct: 30 min, 30° C, average of two experiments
Method: as §1, §2, §3, §4, §5, §6

[7] = 90 min, HeLa CFE, no inhibitor, over 20 independent assays

## N.N.[Cl][Pt+2][Cl] [transplatin]
[1]
  cellular SSRP binding to double stranded probe DNA bearing lesions produced by the compound: did not bind

## NCCN.[Cl][Pt][Cl] [cis-dichloro(ethylenediamine)platinum(II)]
[1]
  cellular SSRP binding to double stranded probe DNA bearing lesions produced by the compound: bound

## 156 bp duplex with site-specific cisplatin 1,2-d(GpG) intrastrand crosslink
[2]
  activity: 40 % inhibition
[3]; cisplatin 1,2-d(GpG) intrastrand crosslink, inhibition of excision repair at 0.5 uM h-mtTFA (100% at 1 uM)
  activity: 95 % inhibition

## 156 bp duplex with site-specific cisplatin 1,3-d(GTG) intrastrand crosslink
[3]; cisplatin 1,3-d(GpTpG) intrastrand crosslink, inhibition of excision repair at 1 uM h-mtTFA (40% at 0.5 uM)
  activity: 75 % inhibition

## [Cl-].[NH-]CC[N-]CC[NH-].[Pt+4] [chloro(diethylenetriamine)platinum(II)]
[1]
  cellular SSRP binding to double stranded probe DNA bearing lesions produced by the compound: did not bind

## NC1CCCCC1N.[Cl][Pt][Cl] (stereo not drawn) [cis-dichloro(1,2-diaminocyclohexane)platinum(II)]
[1]
  cellular SSRP binding to double stranded probe DNA bearing lesions produced by the compound: bound

## N.N.[Cl][Pt][Cl] [cisplatin, cis-diamminedichloroplatinum(II), reference compound]
[4]
  sensitivity of ixr-1 null yeast to cisplatin killing relative to parent (wildtype Ixr-1) strain: two-fold less sensitive
[1]
  cellular SSRP binding to double stranded probe DNA bearing lesions produced by the compound: bound
[5]; [7]
  range of excision of the 1,2-d(G^G) crosslink: 1-8%
[6]; [7]
  range of excision of the 1,3-d(GTG) crosslink: 2.3-8%

B1: h-mtTFA: human mitochondrial transcription factor A, an HMG domain protein (protein, UniProt Q00059 43-246, looked up)
Transcription factor A, …: SSVLASCPKKPVSSYLRFSKEQLPIFKAQNPDAKTTELIRRIAQRWRELPDSKKKIYQDAYRAEWQVYKEEISRFKEQLTPSQIMSLEKEIMDKHLKRKAMTKKKELTLLGKPKRPRSAYNVYVAERFQEAKGDSPQEKLKTVKENWKNLSDSEKELYIQHAKEDETRYHNEMKSWEEQMIEVGRKDLLRRTIKKQRKYGAEEC
[5]; 0.5 μM protein, HeLa CFE
  percent inhibition of repair, 1,2-GG adduct: 95%
[5]; 1 μM protein, HeLa CFE
  percent inhibition of repair, 1,2-GG adduct: 100%
[6]; 0.5 μM protein, HeLa CFE
  percent inhibition of repair, 1,3-GTG adduct: 40%
[6]; 1 μM protein, HeLa CFE
  percent inhibition of repair, 1,3-GTG adduct: 75%

B2: HMG1: Recombinant HMG1 protein purified from an E. coli overproducing strain; HMG domain protein (protein, UniProt P09429 1-215, looked up)
High mobility group protein B1: MGKGDPKKPRGKMSSYAFFVQTCREEHKKKHPDASVNFSEFSKKCSERWKTMSAKEKGKFEDMAKADKARYEREMKTYIPPKGETKKKFKDPNAPKRPPSAFFLFCSEYRPKIKGEHPGLSIGDVAKKLGEMWNNTAADDKQPYEKKAAKLKEKYEKDIAAYRAKGKPDAAKKGVVKAEKSKKKKEEEEDEEDEEDEEEEEDEEDEDEEEDDDDE
[5]; 1 μM protein, HeLa CFE
  percent inhibition of repair, 1,2-GG adduct: 40%
[5]; escalating concentrations of purified HMG1 (0-8 μM), FIG. 5
  effect on excision of the cisplatin 1,2-intrastrand crosslink: monotonically inhibited
[6]; 0.5 μM protein, HeLa CFE
  percent inhibition of repair, 1,3-GTG adduct: 0%
[6]; 1 μM protein, HeLa CFE
  percent inhibition of repair, 1,3-GTG adduct: 0%
[6]; HMG1 concentrations up to about 4 μM, inhibited at higher concentrations, FIG. 5
  effect on excision of the 1,3-crosslink: modestly stimulated

Reference: US6475791B1, “Uses for DNA structure-specific recognition protein” (Massachusetts Institute of Technology, priority 1988, dated 2002)
